Results on two molecules are retold here after patent publication US20220204629A1.

Usually Kd stands for a measure of binding affinity in units of concentration. A high value points to a looser complex.

Assay [1] deals with recombinant, full length human Galectin-9 (R&D Systems 2045-GA) (human) (UniProt O00182). Nature of the assay: cell-based or functional assay.
For assay [2], the target named is mouse Galectin-9 CRD2 (residues 226-353) (mouse) (UniProt O08573). Kind of assay: bead based binding, mouse CRD2.
Assay [3] has the same target. Kind of assay: SPR, One Step method, Pioneer; mouse CRD2. Background: SPR reads the build-up and loss of mass on a sensor chip optically.
The target in assay [4] is galectin-9 on the cell surface of the CRL-2134 cell line (human) (UniProt O00182). Kind of assay: flow cytometry, saturation curve on CRL-2134 cells.
In assay [5] the target is mouse Galectin-9 CRD2 (residues 226-353) (mouse) (UniProt O08573). Nature of the assay: biolayer interferometry, G9.2-17 captured on anti-Fab probes, mouse gal-9 CRD2 in solution, global fit.
The target of assay [6] is galectin-9 on the cell surface of the CRL-2134 cell line (human) (UniProt O00182). Kind of assay: cell based binding, flow cytometry on CRL-2134 cells. Background: A flow cytometer gives signals particle by particle.

recombinant, full length human Galectin-9 (R&D Systems 2045-GA) (human), sequence (O00182 other isoform, or with tags, fused parts or gaps limits assumed): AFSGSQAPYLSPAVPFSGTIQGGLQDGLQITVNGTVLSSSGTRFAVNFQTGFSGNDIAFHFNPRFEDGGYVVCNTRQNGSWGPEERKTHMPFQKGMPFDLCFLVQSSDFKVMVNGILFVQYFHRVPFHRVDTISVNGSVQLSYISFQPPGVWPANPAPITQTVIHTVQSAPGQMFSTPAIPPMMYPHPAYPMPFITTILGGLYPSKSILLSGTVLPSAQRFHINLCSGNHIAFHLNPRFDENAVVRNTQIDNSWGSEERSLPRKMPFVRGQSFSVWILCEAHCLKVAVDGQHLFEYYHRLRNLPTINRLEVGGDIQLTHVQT

B1: G9.2-17 human IgG4 (antibody, V domains shown)
VH: EVQLVESGGGLVQPGGSLRLSCAASGFTVSSSSIHWVRQAPGKGLEWVAYISSSSGYTYYADSVKGRFTISADTSKNTAYLQMNSLRAEDTAVYYCARYWSYPSWWPYRGMDYWGQGTLVTVSS
VL: DIQMTQSPSSLSASVGDRVTITCRASQSVSSAVAWYQQKPGKAPKLLIYSASSLYSGVPSRFSGSRSGTDFTLTISSLQPEDFATYYCQQSSTDPITFGQGTKVEIKR
On to B1, for which, in assay [1], the MOLM-13 T cell apoptosis assay stood at 10%. Also, the Kd in assay [2] was 0.3 nM; in assay [3], 1.8 nM; in assay [4] it was 0.41 nM; in assay [5], 1.6 nM.

B2: G9.2-17 mIgG1 (antibody, V domains shown)
VH: EVQLVESGGGLVQPGGSLRLSCAASGFTVSSSSIHWVRQAPGKGLEWVAYISSSSGYTYYADSVKGRFTISADTSKNTAYLQMNSLRAEDTAVYYCARYWSYPSWWPYRGMDYWGQGTLVTVSS
VL: DIQMTQSPSSLSASVGDRVTITCRASQSVSSAVAWYQQKPGKAPKLLIYSASSLYSGVPSRFSGSRSGTDFTLTISSLQPEDFATYYCQQSSTDPITFGQGTKVEIKR
Turning to B2, the Kd was 0.3 nM in assay [2], 3.05 nM in assay [3], 2.9 nM in assay [4] and 2.91 nM in assay [6].
